Target: NGF^painless (NGF variant bearing R100E+P61S mutations) (human)
Assay: native MS

stoichiometry N: 2
Substance: NGF^painless (NGF variant bearing R100E+P61S mutations) (ligand)
